Test results published in patent US10654893B2, “Self-assembling peptide compositions” (3-D MATRIX, LTD., priority 2014, dated 2020).

Assays:
Format in all cases: physicochemical
[1] = Time sweep test of gelation after adding DMEM or saline buffer
Description: FIG. 25 includes 1.5% IEIK13 (SEQ ID NO:3) data at pH 2.3, 2.6, 2.9 and 3.2. Time sweep tests were performed at 1 rad/sec and at 1 Pa with 20 mm plates and 500 μm gap distance. During time sweep tests, DMEM was added into the chamber surrounding the measuring plates to soak the peptides at time=0.
Time sweep tests were performed at 1 rad/sec and at 1 Pa with 20 mm plates and 500 μm gap distance. During time sweep tests, the saline buffer was added into the chamber surrounding the measuring plates to soak the peptides at time=0.

[2] = pH adjustment with 0.1 N NaOH, pH and visual observation; conditions: for Appearance of composition: 2.5%
Description: In this Example, pH levels of peptide compositions was adjusted, for example, by addition of 0.1 N NaOH to 2 mL of a 2.5% peptide composition. pH and appearance of the adjusted compositions were observed. An acidic salt was added if the pH level was higher than the desired level.
With certain compositions, when pH levels of peptide compositions were higher than 3.5 (RADA16 (SEQ ID NO:1) and KLD12 (SEQ ID NO:2)) or 3.7 (IEIK13 (SEQ ID NO:3)), the peptide compositions began phase separation (i.e. becoming cloudy). In some embodiments, provided peptide compositions have a pH within the range of about 3.0 to about 3.7 (particularly for IEIK13 (SEQ ID NO:3)), or about 3.0 to about 3.5 (particularly for RADA16 (SEQ ID NO:1) and/or KLD12 (SEQ ID NO:2)).

[3] = Stiffness and reversibility of RADA16 compositions with salts
Description: FIGS. 41A-41D depict the protocol used to follow peptide dissolution and to assess effects of particular anions and/or cations, and/or their concentration, on certain RADA16 (SEQ ID NO:1) compositions. As shown, peptide powder in a vial was dissolved in deionized water with vortexing and sonication. The particular peptide composition utilized in this Example was a 1% composition of RADA16 (SEQ ID NO:1) that was mixed at a 1:1 ratio with a 2× salt solution to obtain a final concentration of 0.5% RADA16 (SEQ ID NO:1) and the desired molar concentration of salt.
The protocol depicted in FIGS. 41A-41D was followed to analyze stiffness of peptide compositions containing either 2.5% RADA16 (SEQ ID NO:1) and no added salt or 2.5% RADA16 (SEQ ID NO:1) and 0.125 M CaCl2. Results are shown in FIG. 44, which provides a basic understanding of the viscoelastic properties of the resulting compositions.
The protocol depicted in FIGS. 41A-41D was followed to prepare solutions of 0.5% RADA16 mixed with 0.125, 0.25, or 0.5 M CaCl2 were prepared. The compositions were subjected to mechanical stress through vortexing and sonication, so that their structure was thoroughly disrupted (e.g., randomized). Disrupted compositions were then placed at room temperature for 48 hours to allow self-assembly to take place.

[4] = Formulation chart: concentration for desired storage modulus from linear trendline equations; conditions: linear trendline equation
Excerpt: In some embodiments, peptide compositions with a specific desired stiffness may be formulated to have a particular peptide concentration determined using a mathematical model (i.e., the modulus trend-line equation). A formulation chart of peptide compositions may relate their concentrations in deionized water to their specific storage moduli, for example as is presented below in Table 3A. From such a chart, one skilled in the art may formulate a peptide composition with desired rheological properties by selecting a particular peptide and an appropriate peptide concentration so that the formulated composition has a desired stiffness.

[5] = Rheological properties (stiffness, storage modulus, viscosity) at selected pH levels
Description: Rheological properties of certain peptide compositions were observed before and after adjusting their pH levels to 3.4 (RADA16 (SEQ ID NO:1) and KLD12 (SEQ ID NO:2)) or 3.7 (IEIK13 (SEQ ID NO:3)). Rheological properties of peptides were evaluated using a rheometer (AR500, TA Instruments) with 40 mm plates. Specifically, a peptide composition (700 μL) was placed on the rheometer plate and excess composition was gently removed by Kimwipes. Measurements were performed after 2 minutes of relaxation time at 37° C. RADA16 (SEQ ID NO:1), KLD12 (SEQ ID NO:2) and IEIK13 (SEQ ID NO:3) compositions at elevated pH were stiffer than those at 2.5 (RADA16 (SEQ ID NO:1)), 2.0 (KLD12 (SEQ ID NO:2)), and 2.1 (IEIK13 (SEQ ID NO:3)).
Storage modulus of certain peptide compositions at selected pH levels were evaluated using a rheometer (DHR-1, TA Instruments) with 20 mm plates. […] Determined storage moduli for tested peptide compositions are shown in FIG. 18 for RADA16 (SEQ ID NO:1) and FIG. 19 for IEIK13 (SEQ ID NO:3), respectively.
Viscosities of 1% IEIK13 (SEQ ID NO:3) compositions at selected pH levels were evaluated using a rheometer (DHR-1, TA Instruments) with 20 mm plates.

Arg-Ala-Asp-Ala-Arg-Ala-Asp-Ala-Arg-Ala-Asp-Ala-Arg-Ala-Asp-Ala [RADA16]
Gelation on exposure to saline buffer ([1]; saline buffer, 0.15 M NaCl): no or negligible gelation | Storage modulus response (gelation kinetics) ([1]; with pH adjustment, time sweep with DMEM (FIGS. 24 and 25)): immediate storage modulus increase | Time without storage modulus increase ([1]; without pH adjustment (pH 2.2), time sweep with DMEM (FIG. 24)): 13 s | Observation ([2]; 0.1N NaOH 0 μL/mL, Conc. 2.5%, pH 2.2 (RADA16), 1.8 (IEIK13), 2.1 (KLD12)): Clear, thick gel | Observation ([2]; 0.1N NaOH 50 μL/mL, Conc. 2.38%, pH 2.3 (RADA16), 2.1 (IEIK13), 2.4 (KLD12)): Clear, thick gel | Observation ([2]; 0.1N NaOH 100 μL/mL, Conc. 2.27%, pH 2.4 (RADA16), 2.2 (IEIK13), 2.6 (KLD12)): Clear, thick gel | Observation ([2]; 0.1N NaOH 150 μL/mL, Conc. 2.17%, pH 2.7 (RADA16), 2.7 (IEIK13), 2.9 (KLD12)): Clear, thick, stiffer gel | Observation ([2]; 0.1N NaOH 200 μL/mL, Conc. 2.08%, pH 2.9 (RADA16), 3.0 (IEIK13), 3.3 (KLD12)): Clear, thick, stiffer gel | Observation ([2]; 0.1N NaOH 250 μL/mL, Conc. 2.0%, pH 3.2 (RADA16), 3.3 (IEIK13), 4.0 (KLD12)): Clear, thick, stiffer gel | Observation ([2]; 0.1N NaOH 275 μL/mL, Conc. 1.96%, pH 3.4 (RADA16), 3.7 (IEIK13)): Clear, thick, stiffer gel | Observation ([2]; 0.1N NaOH 300 μL/mL, Conc. 1.92%, pH 3.6 (RADA16), 4.0 (IEIK13), 4.7 (KLD12)): Slightly cloudy, brittle gel | Observation ([2]; 0.1N NaOH 350 μL/mL, Conc. 1.85%, pH 4.5 (RADA16), 4.5 (IEIK13), 5.2 (KLD12)): Cloudy, phase-separated | Peptide composition pH ([2]; 0.1N NaOH added in 2.5% composition 0 μL/mL, Conc. 2.5%): 2.2 | Peptide composition pH ([2]; 0.1N NaOH added in 2.5% composition 50 μL/mL, Conc. 2.38%): 2.3 | Peptide composition pH ([2]; 0.1N NaOH added in 2.5% composition 100 μL/mL, Conc. 2.27%): 2.4 | Peptide composition pH ([2]; 0.1N NaOH added in 2.5% composition 150 μL/mL, Conc. 2.17%): 2.7 | Peptide composition pH ([2]; 0.1N NaOH added in 2.5% composition 200 μL/mL, Conc. 2.08%): 2.9 | Peptide composition pH ([2]; 0.1N NaOH added in 2.5% composition 250 μL/mL, Conc. 2.0%): 3.2 | Peptide composition pH ([2]; 0.1N NaOH added in 2.5% composition 275 μL/mL, Conc. 1.96%): 3.4 | Peptide composition pH ([2]; 0.1N NaOH added in 2.5% composition 300 μL/mL, Conc. 1.92%): 3.6 | Peptide composition pH ([2]; 0.1N NaOH added in 2.5% composition 350 μL/mL, Conc. 1.85%): 4.5 | Appearance of composition ([2]; pH about 3.5 (FIG. 12)): clear | Appearance of composition ([2]; pH=3.6 (FIG. 12)): slightly cloudy | Appearance of composition ([2]; pH=4.0 (FIG. 12)): precipitated | Observation ([2]; pH 7.0, NaOH volume and conc. not given): Cloudy, phase-separated | Reversibility after mechanical perturbation ([3]; 0.5% RADA16, 0.125 or 0.25 M CaCl2, vortexing and sonication, 48 hours at room temperature): reversibility can be maintained | Stiffness after disruption ([3]; 0.5% RADA16, 0.5 M CaCl2, vortexing and sonication, 48 hours at room temperature): dramatically less stiffness | Stiffness with salt versus no added salt ([3]; 2.5% RADA16 and 0.125 M CaCl2 versus 2.5% RADA16): noticeable increase in stiffness | Peptide concentration with deionized water to obtain desired storage modulus ([4]; storage modulus 25 Pa): 0.8 | Peptide concentration with deionized water to obtain desired storage modulus ([4]; storage modulus 50 Pa): 0.9 | Peptide concentration with deionized water to obtain desired storage modulus ([4]; storage modulus 75 Pa): 1.0 | Peptide concentration with deionized water to obtain desired storage modulus ([4]; storage modulus 100 Pa): 1.2 | Peptide concentration with deionized water to obtain desired storage modulus ([4]; storage modulus 125 Pa): 1.3 | Peptide concentration with deionized water to obtain desired storage modulus ([4]; storage modulus 150 Pa): 1.5 | Peptide concentration with deionized water to obtain desired storage modulus ([4]; storage modulus 175 Pa): 1.6 | Peptide concentration with deionized water to obtain desired storage modulus ([4]; storage modulus 200 Pa): 1.7 | Peptide concentration with deionized water to obtain desired storage modulus ([4]; storage modulus 225 Pa): 1.9 | Peptide concentration with deionized water to obtain desired storage modulus ([4]; storage modulus 250 Pa): 2.0 | Peptide concentration with deionized water to obtain desired storage modulus ([4]; storage modulus 275 Pa): 2.2 | Peptide concentration with deionized water to obtain desired storage modulus ([4]; storage modulus 300 Pa): 2.3 | Peptide concentration with deionized water to obtain desired storage modulus ([4]; storage modulus 325 Pa): 2.4 | Peptide concentration with deionized water to obtain desired storage modulus ([4]; storage modulus 350 Pa): 2.6 | Peptide concentration with deionized water to obtain desired storage modulus ([4]; storage modulus 375 Pa): 2.7 | Peptide concentration with deionized water to obtain desired storage modulus ([4]; storage modulus 400 Pa): 2.9 | Peptide concentration with deionized water to obtain desired storage modulus ([4]; storage modulus 425 Pa): 3.0 | Peptide concentration with deionized water to obtain desired storage modulus ([4]; storage modulus 500 Pa): 3.4 | Peptide concentration with deionized water to obtain desired storage modulus ([4]; storage modulus 600 Pa): 4.0 | Peptide concentration with deionized water to obtain desired storage modulus ([4]; storage modulus 700 Pa): 4.5 | Peptide concentration with deionized water to obtain desired storage modulus ([4]; storage modulus 800 Pa): 5.1 | Storage modulus as a function of pH ([5]; DHR-1, 20 mm plates, 2.5% RADA16, 1.5% IEIK13 (FIGS. 18, 19)): increased with pH increase up to 3.4 | Stiffness at elevated pH versus unadjusted pH ([5]; pH 3.4 (RADA16, KLD12) or 3.7 (IEIK13) versus 2.5 (RADA16), 2.0 (KLD12), 2.1 (IEIK13), stress sweep): stiffer
